This is an account of results in publication PMC2645937.

The target of experiment [1] is E. coli ribonucleotide reductase large subunit α2 (E. coli) (UniProt P00452). In words: cross-linking.
The target in experiment [2] is ribonucleotide reductase β2 (Escherichia coli) (UniProt P69924). The note with it: cited from earlier work.
Experiment [3] deals with DAN-β2(V351C): (His)6-β2-C268S/C305S/V351C labelled with dimethylaminonaphthalene (E. coli). In words: other fluorescence titration.

Usually Kd stands for the free concentration of one partner at which half of the binding sites on the other are occupied at equilibrium, for simple one-to-one binding.

Turning to “BP-β2(V365C): (His)6-β2-C268S/C305S/V365C labelled with benzophenone (enzyme)”, the percent cross-linked in experiment [1] worked out at 19%.

For “BP-β2(Y356C): (His)6-β2-C268S/C305S/Y356C labelled with benzophenone (enzyme)”, the percent cross-linked in experiment [1] amounted to 9%.

With “ribonucleotide reductase α2 (from UniProt P00452)”, the Kd in experiment [2] is 200 nM.

B1: E. coli ribonucleotide reductase large subunit α2 (enzyme)
chain: MNQNLLVTKRDGSTERINLDKIHRVLDWAAEGLHNVSISQVELRSHIQFYDGIKTSDIHETIIKAAADLISRDAPDYQYLAARLAIFHLRKKAYGQFEPPALYDHVVKMVEMGKYDNHLLEDYTEEEFKQMDTFIDHDRDMTFSYAAVKQLEGKYLVQNRVTGEIYESAQFLYILVAACLFSNYPRETRLQYVKRFYDAVSTFKISLPTPIMSGVRTPTRQFSSCVLIECGDSLDSINATSSAIVKYVSQRAGIGINAGRIRALGSPIRGGEAFHTGCIPFYKHFQTAVKSCSQGGVRGGAATLFYPMWHLEVESLLVLKNNRGVEGNRVRHMDYGVQINKLMYTRLLKGEDITLFSPSDVPGLYDAFFADQEEFERLYTKYEKDDSIRKQRVKAVELFSLMMQERASTGRIYIQNVDHCNTHSPFDPAIAPVRQSNLCLEIALPTKPLNDVNDENGEIALCTLSAFNLGAINNLDELEELAILAVRALDALLDYQDYPIPAAKRGAMGRRTLGIGVINFAYYLAKHGKRYSDGSANNLTHKTFEAIQYYLLKASNELAKEQGACPWFNETTYAKGILPIDTYKKDLDTIANEPLHYDWEALRESIKTHGLRNSTLSALMPSETSSQISNATNGIEPPRGYVSIKASKDGILRQVVPDYEHLHDAYELLWEMPGNDGYLQLVGIMQKFIDQSISANTNYDPSRFPSGKVPMQQLLKDLLTAYKFGVKTLYYQNTRDGAEDAQDDLVPSIQDDGCESGACKI
Molecule B1 returned a dissociation constant Kd in experiment [3] of 380 nM.
